Measured values taken from the RNAGym collection of RNA variant scans (doi:10.7554/elife.80360).

B1: HDV Ribozyme (parent)
chain: GGCCGGCAUGGUCCCAGCCUCCUCGCUGGCGCCGGCUGGGCAACAUUCCGAGGGGACCGUCCCCUCGGUAAUGGCGAAUGGGACCCA

Variants of: B1
Test: self-cleavage, relative activity (ratio to wild type); higher = more cleavage; co-transcriptional

Variant | self-cleavage
GGCCGGCAUGGUCCCAGCCUCCUCGAUGGCGCCGGCUAGGCAACAUUCCGAGGGGACCGUCCCCUCGGUAAUGGCGAAUGGGACCCA [C26A G38A] | 0.153
GGCCGGCAUGGUCCCAGCCUCCUCGAUGGCGCCGGCUGGGCAACAUUCCGAGGGGACCGUCCCCUCGGUAAUGGCGAAUGGGACCCC [C26A A87C] | 0.944
GGCCGGCAUGGUCCCAGCCUCCUCGAUGGCGCCGGCUGGGCAACAUUCCGAGGGGACCGUCCCCUCGGUAAUGGCGAAUGGGACCCG [C26A A87G] | 0.864
GGCCGGCAUGGUCCCAGCCUCCUCGAUGGCGCCGGCUGGGCAACAUUCCGAGGGGACCGUCACCUCGGUAAUGGCGAAUGGGACCCA [C26A C62A] | 1.15
GGCCGGCAUGGUCCCAGCCUCCUCGAUGGCGCCGGCUGGGCAACAUUCCGAGGGGACUGUCCCCUCGGUAAUGGCGAAUGGGACCCA [C26A C58U] | 0.981
GGCCGGCAUGGUCCCAGCCUCCUCGAUGGCGCCGGCUGAGCAACAUUCCGAGGGGACCGUCCCCUCGGUAAUGGCGAAUGGGACCCA [C26A G39A] | 0.234
GGCCGGCAUGGUCCCAGCCUCCUCGAUGGCGCCGGCUGCGCAACAUUCCGAGGGGACCGUCCCCUCGGUAAUGGCGAAUGGGACCCA [C26A G39C] | 0
GGCCGGCAUGGUCCCAGCCUCCUCGAUGGCGCCGACUGGGCAACAUUCCGAGGGGACCGUCCCCUCGGUAAUGGCGAAUGGGACCCA [C26A G35A] | 0.633
GGCCGGCAUGGUCCCAGCCUCCUCGAUGGGGCCGGCUGGGCAACAUUCCGAGGGGACCGUCCCCUCGGUAAUGGCGAAUGGGACCCA [C26A C30G] | 0.17
GGCCGGCAUGGUCCCAGCCUCCUCGAUGGCGCCGGAUGGGCAACAUUCCGAGGGGACCGUCCCCUCGGUAAUGGCGAAUGGGACCCA [C26A C36A] | 0.143
GGCCGGCAUGGUCCCAGCCUCCUCGAUGGCGCCGGCUGGGAAACAUUCCGAGGGGACCGUCCCCUCGGUAAUGGCGAAUGGGACCCA [C26A C41A] | 1.17
GGCCGGCAUGGUCCCAGCCUCCUCGAUGGCGUCGGCUGGGCAACAUUCCGAGGGGACCGUCCCCUCGGUAAUGGCGAAUGGGACCCA [C26A C32U] | 0.816
GGCCGGCAUGGUCCCAGCCUCCUCGAUGGCGACGGCUGGGCAACAUUCCGAGGGGACCGUCCCCUCGGUAAUGGCGAAUGGGACCCA [C26A C32A] | 0.216
GGCCGGCAUGGUCCCAGCCUCCUCGAUGGCGCCGGCUGGGCAACAUUCCGAGGGGACCGUCCCCUCGGUAAUGGCGUAUGGGACCCA [C26A A77U] | 0.597
GGCCGGCAUGGUCCCAGCCUCCUCGAUGGCGCCGGCUGGGCAACAUUCCGAGGGGACCGUCCCCUCGGUAAUGGCGCAUGGGACCCA [C26A A77C] | 0.266
GGCCGGCAUGGUCCCAGCCUCCUCGAUGGCGCCGGCUGGGCAACAUUCCGUGGGGACCGUCCCCUCGGUAAUGGCGAAUGGGACCCA [C26A A51U] | 1.08

Variant | self-cleavage
GGCCGGCAUGGUCCCAGCCUCCUCGAUGGCGCCGGCUGGGCAACAUUCCGCGGGGACCGUCCCCUCGGUAAUGGCGAAUGGGACCCA [C26A A51C] | 1.13
GGCCGGCAUGGUCCCAGCCUCCUCGAUGGCGCCGGCUGGGCAACAUUCCGAGGGGACCGUCCCCUCGGUUAUGGCGAAUGGGACCCA [C26A A70U] | 1.23
GGCCGGCAUGGUCCCAGCCUCCUCGAUGGCGCCGGCUGGGCAACAUUCCGAGGGGACCGUCCCCUGGGUAAUGGCGAAUGGGACCCA [C26A C66G] | 1.15
GGCCGGCAUGGUCCCAGCCUCCUCGAUGGCGCCGGCUGGGCAUCAUUCCGAGGGGACCGUCCCCUCGGUAAUGGCGAAUGGGACCCA [C26A A43U] | 0.527
GGCCGGCAUGGUCCCAGCCUCCUCGAUGGCGCCGGCUGGCCAACAUUCCGAGGGGACCGUCCCCUCGGUAAUGGCGAAUGGGACCCA [C26A G40C] | 0.601
GGCCGGCAUGGUCCCAGCCUCCUCGAUGGCGCCGGCUGGGCAACAUUCCGAGGGGACCGUCCCCUCGGUAAUGGCGAAUGGGACCAA [C26A C86A] | 1.13
GGCCGGCAUGGUCCCAGCCUCCUCGAUGGCGCCGGCUGGGCAACAUUCCGAGGGGACCGUCCCCUCGGUAAUGGCGAAUGGGACCGA [C26A C86G] | 0.888
GGCCGGCAUGGUCCCAGCCUCCUCGAUGGCGCCGGCUGGGCAACAUUCCGAGGGGACCGUCCCCUCGGUAAUGGCGAAUGGGACCUA [C26A C86U] | 0.735
GGCCGGCAUGGUCCCAGCCUCCUCGAUGGCGCCGGCUGGGCAACAUUCCGAGGGGACCGUCCUCUCGGUAAUGGCGAAUGGGACCCA [C26A C63U] | 0.869
GGCCGGCAUGGUCCCAGCCUCCUCGAUGGCGCCGGCUGGGCAACAUUCCGAGGGGACCGUCCACUCGGUAAUGGCGAAUGGGACCCA [C26A C63A] | 0.724
GGCCGGCAUGGUCCCAGCCUCCUCUCUGGCGCCGGCUGGGCAACAUUCCGAGGGGACCGUCCCCUCGGUAAUGGCGAAGGGGACCCA [G25U U79G] | 0.0426
GGCCGGCAUGGUCCCAGCCUCCUCGAUGGCGCCGGCUGGGCAACAUUCCGAGGGGACCGUCCCCUCGGUAUUGGCGAAUGGGACCCA [C26A A71U] | 0.785
GGCCGGCAUGGUCCCAGCCUCCUCGAUGGCGCCGGCUGGGCAACAUUCCGAGGGGACCGUCCCCUCGGUAAUGGCGAUUGGGACCCA [C26A A78U] | 0.269
GGCCGGCAUGGUCCCAGCCUCCUCGAUGGCGCCGGCUGGGCAACAUUCCGAAGGGACCGUCCCCUCGGUAAUGGCGAAUGGGACCCA [C26A G52A] | 1.06
GGCCGGCAUGGUCCCAGCCUCCUCGAUGGCGCCGGCUGGGCAACAUUCCGAUGGGACCGUCCCCUCGGUAAUGGCGAAUGGGACCCA [C26A G52U] | 0.798
GGCCGGCAUGGUCCCAGCCUCCUCGAUGGCGCCGGCUGGGCAACAUUCAGAGGGGACCGUCCCCUCGGUAAUGGCGAAUGGGACCCA [C26A C49A] | 1.11
